# Experimental data reported in patent US20150274781A1 (UNIVERSITAET LEIPZIG, published 2015).
# Where no end group is shown, it is not given here. [ ]: non-standard residue; d: D form. d1Nal = N[C@H](Cc1cccc2ccccc12)C(=O)O; Phg = N[C@H](C(=O)O)c1ccccc1; Nva = CCC[C@H](N)C(=O)O
# Biological target: T1, human ghrelin receptor (human, UniProt Q92847 1-366)
# Assay: cell-based or functional assay
# T1 sequence (Q92847 whole entry): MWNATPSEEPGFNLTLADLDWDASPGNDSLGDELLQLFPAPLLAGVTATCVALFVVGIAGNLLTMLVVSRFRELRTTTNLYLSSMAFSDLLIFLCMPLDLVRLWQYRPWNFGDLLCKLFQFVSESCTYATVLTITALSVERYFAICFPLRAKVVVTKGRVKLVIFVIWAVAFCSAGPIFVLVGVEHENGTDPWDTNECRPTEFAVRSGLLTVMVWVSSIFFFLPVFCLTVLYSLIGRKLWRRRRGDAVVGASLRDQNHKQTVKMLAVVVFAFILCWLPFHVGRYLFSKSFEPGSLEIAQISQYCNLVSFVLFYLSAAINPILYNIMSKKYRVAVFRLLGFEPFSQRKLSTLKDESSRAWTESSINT
Binder,"EC50, inverse agonistic activity, inositol trisphosphate turnover assay in COS-7 cells transfected with the ghrelin receptor [nM]","Emax [Δ %], inverse agonistic activity, inositol trisphosphate turnover assay"
KXFXLL (D-Phe at 2; D-Trp at 4; C-terminal amide) [K-(D-Phe)-FwLL-NH2],241,62 Δ %
KXFXLL (2-naphthyl-D-alanine (D-2-Nal) at 2; D-Trp at 4; C-terminal amide) [K-(D-2-Nal)-FwLL-NH2],161,66 Δ %
KXFXLL (tert-butyl-D-phenylalanine (D-tBf) at 2; D-Trp at 4; C-terminal amide) [K-(D-tBf)-FwLL-NH2],624,76 Δ %
KXFXLL (1-naphthyl-D-alanine (D-1-Nal) at 2; D-Trp at 4; C-terminal amide) [K-(D-1-Nal)-FwLL-NH2],3.4,64 Δ %
"KXFXLL (4,4'-biphenyl-D-alanine (D-Bip) at 2; D-Trp at 4; C-terminal amide) [K-(D-Bip)-FwLL-NH2]",184,82 Δ %
KXFXLL (beta-(3-benzothienyl)-D-alanine (D-Bth) at 2; D-Trp at 4; C-terminal amide) [K-(D-Bth)-FwLL-NH2],–,81 Δ %
"KXFXLL (3,3-diphenyl-D-alanine (D-Dip) at 2; D-Trp at 4; C-terminal amide) [K-(D-Dip)-FwLL-NH2]",13.1,87 Δ %
KXFXLL (4-benzoyl-D-phenylalanine (D-Bpa) at 2; D-Trp at 4; C-terminal amide) [K-(D-Bpa)-FwLL-NH2],169,67 Δ %
K[dW]F[dW]LL-NH2 (N-terminus assumed; SMILES CC(C)C[C@H](NC(=O)[C@H](CC(C)C)NC(=O)[C@@H](Cc1c[nH]c2ccccc12)NC(=O)[C@H](Cc1ccccc1)NC(=O)[C@@H](Cc1c[nH]c2ccccc12)NC(=O)[C@@H](N)CCCCN)C(N)=O) [KwFwLL-NH2],45.6,37 Δ %

# Biological target: T1, human ghrelin receptor
# Assay: cell-based or functional assay
# Remark: another data set of the same source
row,Binder,"EC50, agonistic activity, inositol trisphosphate turnover assay in COS-7 cells transfected with the ghrelin receptor [nM]"
1,KXFXLL (D-Trp at 2; 1-naphthyl-D-alanine (D-1-Nal) at 4; C-terminal amide) [KwF-(D-1-Nal)-LL-NH2],17.9
2,KXFXLL (D-Trp at 2; 2-naphthyl-D-alanine (D-2-Nal) at 4; C-terminal amide) [KwF-(D-2-Nal)-LL-NH2],12.6

# Biological target: T1, human ghrelin receptor
# Assay: cell-based or functional assay
# Remark: another data set of the same source
Binder,"EC50, inverse agonistic activity, inositol trisphosphate turnover assay in COS-7 cells transfected with the ghrelin receptor [nM]","Emax [Δ %], inverse agonistic activity, inositol trisphosphate turnover assay",x-fold (EC50) compared to K-(D-1-Nal)-FwLL-NH2 [fold],x-fold (Emax) compared to K-(D-1-Nal)-FwLL-NH2 [fold]
KXFXLL (1-naphthyl-D-alanine (D-1-Nal) at 2; D-Trp at 4; C-terminal amide) [K-(D-1-Nal)-FwLL-NH2],3.4,64 Δ %,–,–
K[d1Nal][Phg][dW]LL-NH2 (N-terminus assumed; SMILES CC(C)C[C@H](NC(=O)[C@H](CC(C)C)NC(=O)[C@@H](Cc1c[nH]c2ccccc12)NC(=O)[C@@H](NC(=O)[C@@H](Cc1cccc2ccccc12)NC(=O)[C@@H](N)CCCCN)c1ccccc1)C(N)=O) [K-(D-1-Nal)-(L-Phg)-wLL-NH2],> 1000,–,> 290,–
KXXXLL (1-naphthyl-D-alanine (D-1-Nal) at 2; D-Phe at 3; D-Trp at 4; C-terminal amide) [K-(D-1-Nal)-(D-Phe)-wLL-NH2],120,58 Δ %,35.2,0.9
KXXXLL (1-naphthyl-D-alanine (D-1-Nal) at 2; tert-butyl-L-phenylalanine (L-tBf) at 3; D-Trp at 4; C-terminal amide) [K-(D-1-Nal)-(L-tBf)-wLL-NH2],124,84 Δ %,36.5,1.3
KXXXLL (1-naphthyl-D-alanine (D-1-Nal) at 2; 3-cyclohexyl-L-alanine (L-Cha) at 3; D-Trp at 4; C-terminal amide) [K-(D-1-Nal)-(L-Cha)-wLL-NH2],96.8,85 Δ %,28.5,1.3
K[d1Nal][Nva][dW]LL-NH2 (N-terminus assumed; SMILES CCC[C@H](NC(=O)[C@@H](Cc1cccc2ccccc12)NC(=O)[C@@H](N)CCCCN)C(=O)N[C@H](Cc1c[nH]c2ccccc12)C(=O)N[C@@H](CC(C)C)C(=O)N[C@@H](CC(C)C)C(N)=O) [K-(D-1-Nal)-(L-Nva)-wLL-NH2],498,71 Δ %,146,1.1
